This note sets out measurements from article PMC5884710, “Cork-in-Bottle Occlusion of Fluoride Ion Channels by Crystallization Chaperones” (Structure(London, England:1993), 2018).

This series deals with the molecule itself. The series can be described thus: crystal structure; in meso crystals of the Bpe-S8 complex; 26% PEG 550MME, 0.1 M sodium citrate, pH 5.0; 2.8 A.

B1: Fluoride channel from B. pertussis (Fluc homolog Bpe) (natural protein)
chain: MLTYAPLNFIAIGIGATLGAWLRWVLGLRLNGAGWPWGTLTANLVGGYLIGVMVALIASHPEWPAWIRLAAVTGFLGGLTTFSTFSAETVDMLERGVYATAAAYAGASLAGSLAMTGLGLATVRLLLR
notes: Fluc family fluoride ion channel homolog Bpe from B. pertussis; homodimer of two antiparallel subunits (subunits A and B in PDB 6BQO); pET21c with Bpe gene, C-terminal hexahistidine tag; Construct as in Stockbridge et al., 2013; also called Fluc channel; Fluc homologue "Bpe"; source: E. coli, purified (as described in Stockbridge et al., 2013); reconstituted into liposomes for …
The term stoichiometry N denotes a count of units in the complex or per binding partner. On to B1, for which the “stoichiometry N” value worked out at 2.
